Reference: patent publication US20210292396A1 (INTERNATIONAL AIDS VACCINE INITIATIVE, published 2021)

Tests used:
Test in all cases: cell-based or functional assay
[1] = biological target: HIV Env of isolate 6480.v4.c25 (HIV)
[2] = biological target: HIV Env of isolate X1193_c1 (HIV)
[3] = biological target: HIV Env of isolate TRO.11 (HIV)
[4] = biological target: HIV Env of isolate 1054_07_TC4_1499 (HIV)
[5] = biological target: HIV Env of isolate SC422661.8 (HIV)
[6] = biological target: HIV Env of isolate CAP45.2.00.G3 (HIV)
[7] = biological target: HIV Env of isolate Du156.12 (HIV)
[8] = biological target: HIV Env of isolate HIV-16845-2.22 (HIV)
[9] = biological target: HIV Env of isolate T211-9 (HIV)
[10] = biological target: HIV Env of isolate AC10.0.29 (HIV)
HIV Env of isolate CNE52 = HIV Env of isolate CNE52 (HIV)
[11] = biological target: HIV Env of isolate CAP210.2.00.E8 (HIV)
[12] = biological target: HIV Env of isolate P0402_C2_11 (HIV)
[13] = biological target: HIV Env of isolate 1012_11_TC21_3257 (HIV)
HIV Env of isolate CNE20 = HIV Env of isolate CNE20 (HIV)
[14] = biological target: HIV Env of isolate 1056_10_TA11_1826 (HIV)
[15] = biological target: HIV Env of isolate ZM214M.PL15 (HIV)
HIV Env of isolate PVO.4 = HIV Env of isolate PVO.4 (HIV)
[16] = biological target: HIV Env of isolate HIV-001428-2.42 (HIV)
[17] = biological target: HIV Env of isolate 3817.v2.c59 (HIV)
[18] = biological target: HIV Env of isolate Ce1176_A3 (HIV)
[19] = biological target: HIV Env of isolate T250-4 (HIV)
[20] = biological target: HIV Env of isolate 1006_11_C3_1601 (HIV)
[21] = biological target: HIV Env of isolate 6480.v4.c25 (HIV); remark: listed apart in the source
[22] = biological target: HIV Env of isolate 191955_A11 (HIV)
[23] = biological target: HIV Env of isolate 1054_07_TC4_1499 (HIV); remark: listed apart in the source
[24] = biological target: HIV Env of isolate 6041.v3.c23 (HIV)
[25] = biological target: HIV Env of isolate 620345.c01 (HIV)
[26] = biological target: HIV Env of isolate HIV-16845-2.22 (HIV); remark: listed apart in the source
[27] = biological target: HIV Env of isolate BF1266.431a (HIV)
HIV Env of isolate CNE58 = HIV Env of isolate CNE58 (HIV)
[28] = biological target: HIV Env of isolate 928-28 (HIV)
[29] = biological target: HIV Env of isolate 1012_11_TC21_3257 (HIV); remark: listed apart in the source
[30] = biological target: HIV Env of isolate Du172.17 (HIV)
[31] = biological target: HIV Env of isolate WITO4160.33 (HIV)
[32] = biological target: HIV Env of isolate 1056_10_TA11_1826 (HIV); remark: listed apart in the source
[33] = biological target: HIV Env of isolate R2184.c04 (HIV)
[34] = biological target: HIV Env of isolate ZM197M.PB7 (HIV)
[35] = biological target: HIV Env of isolate Ce703010054_2A2 (HIV)
[36] = biological target: HIV Env of isolate X1254_c3 (HIV)
[37] = biological target: HIV Env of isolate TRJO4551.58 (HIV)
[38] = biological target: HIV Env of isolate C4118.c09 (HIV)
[39] = biological target: HIV Env of isolate P1981_C5_3 (HIV)
[40] = biological target: HIV Env of isolate Du422.1 (HIV)
[41] = biological target: HIV Env of isolate R3265.c06 (HIV)

B1: ePGT121.15.H1.L1 (antibody, V domains shown)
VH: QMQLQESGPGLVKPGETLSLTCSVSGASISSSYWSWLRETPGKGLEWIGYTHHSGDTNYAPSLKSRVHLGLHPSKNQVSLSLTSVTAADTAVYYCARTLHGRRIYGVVAFNEWFTYFYWEVWGNGTQVTVSS
VL: SDISVAPGETVRISCGGESIGSRAVQWYQHRAGQAPKLIIYNNQDRPPGIPERFSGSPDIDFGTTATLTITNVEAGDEATYYCHIWDSRRPTNWVFGGGTTLTVL
For B1, the “neutralization (Table 6 value)” value [1] was 0.000305, the “neutralization (Table 6 value)” value [2] was 0.000256 and the “neutralization (Table 6 value)” value [3] was 0.00156. For the same binder, the “neutralization (Table 6 value)” value [4] was 0.00167, the “neutralization (Table 6 value)” value [5] was 0.00372 and the “neutralization (Table 6 value)” value [6] was 3.06. The “neutralization (Table 6 value)” value [7] was 0.00124, the “neutralization (Table 6 value)” value [8] was 0.0209 and the “neutralization (Table 6 value)” value [9] was 0.00532. The “neutralization (Table 6 value)” value [10] was 0.00272, the “neutralization (Table 6 value)” value (HIV Env of isolate CNE52) was 0.0515 and the “neutralization (Table 6 value)” value [11] was 0.0229. For the same binder, the “neutralization (Table 6 value)” value [12] was 0.00268, the “neutralization (Table 6 value)” value [13] was 0.00262 and the “neutralization (Table 6 value)” value (HIV Env of isolate CNE20) was 0.000933. The “neutralization (Table 6 value)” value [14] was 0.00391, the “neutralization (Table 6 value)” value [15] was 0.0146 and the “neutralization (Table 6 value)” value (HIV Env of isolate PVO.4) was 0.0044. For the same binder, the “neutralization (Table 6 value)” value [16] was 0.00153, the “neutralization (Table 6 value)” value [17] was 0.00495 and the “neutralization (Table 6 value)” value [18] was 0.00282. For the same binder, the “neutralization (Table 6 value)” value [19] was 0.000854, the “neutralization (Table 6 value)” value [20] was 0.00195 and the “neutralization IC50” value [21] was 1.2 ng/mL. For the same binder, the “neutralization IC50” value [22] was greater than 50000 ng/mL, the “neutralization IC50” value [23] was 0.1 ng/mL and the “neutralization IC50” value [24] was 12400 ng/mL. The “neutralization IC50” value [25] was greater than 50000 ng/mL, the “neutralization IC50” value [26] was 7.2 ng/mL and the “neutralization IC50” value [27] was greater than 50000 ng/mL. For the same binder, the “neutralization IC50” value (HIV Env of isolate CNE58) was 2.5 ng/mL, the “neutralization IC50” value [28] was 17.8 ng/mL and the “neutralization IC50” value [29] was 0.9 ng/mL. The “neutralization IC50” value [30] was 0.2 ng/mL, the “neutralization IC50” value [31] was 1.1 ng/mL and the “neutralization IC50” value [32] was 0.1 ng/mL. The “neutralization IC50” value [33] was greater than 50000 ng/mL, the “neutralization IC50” value [34] was greater than 50000 ng/mL and the “neutralization IC50” value [35] was greater than 50000 ng/mL. For the same binder, the “neutralization IC50” value [36] was 1.4 ng/mL, the “neutralization IC50” value [37] was 0.5 ng/mL and the “neutralization IC50” value [38] was greater than 50000 ng/mL. The “neutralization IC50” value [39] was 1.4 ng/mL, the “neutralization IC50” value [40] was 0.7 ng/mL and the “neutralization IC50” value [41] was greater than 50000 ng/mL.
